For this assay, the target named is EGFR 1045+ add-back mutant (pY-null 9Y- backbone with Y1045 added back) (human) (UniProt P00533). The assay is described as follows: co-IP.

This is an account of results in article PMC3730230.

“And” between values parts separate entries of the source, which are not always exact repeats. Equal entries are not always repeated.

For “Cbl, endogenous in NR6 cells (from UniProt P22682 1-913) (enzyme)”, the fold reduction of association against EGFR-WT is 4 fold and 5 fold.
